Reference: patent US20160228506A1, “Compositions and Formulations for Prevention and Reduction of Tumorigenesis, Cancer Cell Proliferation and Invasion, and Methods of Production and Use Thereof in Cancer Treatment” (PRONUTRIA, INC., priority 2013, published 2016)

Assays:
pH solubility = format: physicochemical; details: for pH Range where Protein is >80% detected as Soluble and A650 <1 OD: Low: lower pH; for pH Range where Protein is >80% detected as Soluble and A650 <1 OD: High: upper pH
Protocol: pH Solubility. […] Protein was either lyophilized and then resuspended in buffer cocktail mixtures, or concentrated and then spiked into buffer cocktail mixtures at a final protein concentration of 5 to 30 mg/ml. As a control, protein was also dissolved in a solution of 8 M urea. Protein solutions were shaken for 10 min at room temperature. Turbidity of proteins was determined by measuring the absorbance of protein solutions at 650 nm. The protein solution was then centrifuged for 10 min at 1100×g to pellet undissolved or precipitated protein. The soluble protein fraction (supernatant) was sampled and protein concentration was measured by one or more of the following methods: Coomassie Plus Protein Assay (Pierce), Chip electrophoresis, gel electrophoresis, and/or absorbance at 280 nm. The pH range over which select proteins remained greater than 80% soluble as determined by Bradford and the A650 value are listed in Table E31C.

[1] = Intact half-life during simulated gastric fluid (SGF) digestion; details: for SGF Half-life (t½): SGF pH 1.5, pepsin:polypeptide 1:20 w/w, 37° C., intact protein; for Half-life: purified proteins, chip electrophoresis
Protocol: In this experiment the nutritive polypeptide was exposed to a series of proteases that are active in the stomach (pepsin) and intestine (trypsin and chymotrypsin), and the presence of intact protein was measured over time. Specifically, the nutritive polypeptide was first treated at a concentration of 2 g/L with simulated gastric fluid (SGF) (0.03 M NaCl, titrated with HCl to pH 1.5 with a final pepsin:polypeptide ratio of 1:20 w/w) at 37° C. Time points were sampled from the reaction and quenched by addition of 0.2 M Na2CO3. […] Time points were sampled from the reaction and quenched by addition of Trypsin/Chymotrypsin Inhibitor (Sigma) solution until 240 min.
Time point samples were analyzed for intact protein by chip electrophoresis, polyacrylamide gel electrophoresis, or western blot. For chip electrophoresis (Labchip GX II), samples were analyzed using a HT Low MW Protein Express LabChip® Kit (following the manufacturer's protocol). A protein ladder was loaded every 12 samples for molecular weight determination (kDa) and quantification. For polyacrylamide gel electrophoresis, samples (1 μg) were separated on a NuPAGE® Novex® Bis-Tris Precast gel (Life Technologies) according to the manufacturer's protocol. The gel was stained using SimplyBlue™ SafeStain (Invitrogen) and imaged using a Chemidoc XRS+ (BioRad) or transferred onto nitrocellulose membranes using the iBlot® Dry Blotting System (Life Technologies) and iBlot® Western Detection Kit (Life Technologies) according to the manufacturer's protocol. Proteins were detected by blotting with Anti-His [C-term]-HRP antibody diluted 3:5000 in Blok™-PO Blocking Buffer using the SNAP I.d.® Protein Detection System (Millipore) according to the manufacturer's protocol. Blots were treated with Luminata Classico Western HRP Substrate (Millipore) according to the manufacturer's protocol and imaged using chemiluminescent detection on the Molecular Imager® Gel Doc™ XR+ System (Bio-Rad). Quantification of intact protein was determined by densitometry using ImageLab (BioRad). For all analysis methods the relative concentration of the polypeptide at each time point (if detected) was plotted overtime and fit to an exponential curve to calculate the intact half-life.
Specifically, the t=0 (enzyme-free control) and t=2 min samples from the SGF digest were analyzed for intact protein as described by chip electrophoresis, SDS-PAGE, western blot, and/or LC-MS/MS. Relative quantities of polypeptides at each time point were determined and the percentage of intact protein remaining at t=2 was determined. Intact half-life values determined using this method are reported as greater or less than 2 min to indicate more or less than 50% of the protein remained intact at t=2 min, respectively.

[2] = Thermostability, temperature of aggregation (ProteoStat Thermal Shift); format: physicochemical; parameters: key to Tagg: temperature in °C; details: for Tagg (pH 7.1): Table E31D, heated 25° C. to 95° C.
Protocol: The thermostability of proteins in a buffer cocktail of Citric Acid and Dibasic Sodium Phosphate over a pH range of 2.8 to 7.1 (preparation described above in Table E31B) was determined using the ProteoStat® Thermal Shift Stability Kit (Enzo Life Sciences) according to the manufacturer's standard protocol. Briefly, protein solutions (˜10 mg/ml) containing 1× ProteoStat TS Detection Reagent were heated from 25° C. to 95° C. at a rate of 0.5° C. per 30 sec using a real-time PCR (rtPCR) thermocycler (BioRad) equipped with a plate reader (SynergyMx, Biotek) while monitoring the fluorescence with a Texas Red filter.

[3] = SGF digest of 168 nutritive polypeptide library, intact protein by LC-MS/MS; format: in vitro ADME; details: for % Intact Protein at 10 min: 168 nutritive polypeptide library SGF digest, LC-MS/MS spectral counts; for % Remaining at 10 min: 168 nutritive polypeptide library, LC-MS/MS
Summary of the method: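 Spectral-count ratios (10 min vs 0 min, peak gel fraction plus neighbours) give the percent of each protein left intact after SGF digestion of a pooled, IMAC-purified 168-member recombinant library. Samples were gel-fractionated, trypsinised in-gel and run on Orbitrap nanoLC-MS/MS, requiring two unique peptides at 1% FDR.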

B1: SEQID-00287: nutritive polypeptide (protein, listed as Saccharomyces cerevisiae)
chain: LVLGALLDTSHKFRNLDKDLCEKCAKCISMIGVLDVTKHEFKRTTYSENEVYDLNDSVQTIKFLIWVINDILV
modifications: source: /note="strain ATCC 204508 / S288c"
notes: nutritive polypeptide
pH Range where Protein is >80% detected as Soluble and A650 <1 OD: Low (pH solubility): 6.2
pH Range where Protein is >80% detected as Soluble and A650 <1 OD: Other (pH solubility): 2.6
pH Range where Protein is >80% detected as Soluble and A650 <1 OD: High (pH solubility): 9.1
SGF Half-life (t½) [1]: 180 s

B2: SEQID-00100: nutritive polypeptide (protein, listed as Lactobacillus acidophilus)
chain: MSEEEIFNKIKDLIADNFEVDKDSITENTNFMNDLDADSIDLVEFILQLEDEFGAEIPDDEAEKIKTVGDAVSYIKSHQG
pH Range where Protein is >80% detected as Soluble and A650 <1 OD: Low (pH solubility): 4.3
pH Range where Protein is >80% detected as Soluble and A650 <1 OD: High (pH solubility): 7.1
Tagg ([2]; pH 2.8): 95
Tagg ([2]; pH 3.7): 95
Tagg ([2]; pH 3.9): 95
Tagg ([2]; pH 4.3): 83^
Tagg ([2]; pH 4.6): 84^
Tagg ([2]; pH 5.0): 95
Tagg ([2]; pH 5.6): 95
Tagg ([2]; pH 6.0): 95
Tagg ([2]; pH 6.5): 95
Tagg ([2]; pH 7.1): >95
SGF Half-life (t½) [1]: 120 s

B3: SEQID-00265: nutritive polypeptide (protein, listed as Bos taurus)
chain: SEGDRLRVELAEKANKLQNELDNVSTLLEEAEKKGIKFAKDAAGLESQLQDTQELLQEETRQKLNLSSRIRQLEEERSSLQEQQEEEEEARRSLEKQLQALQAQLTDTKKKVDDDLGTIENLEEAKKKLLKDVEVLSQRLEEKALAYDKLEKTKTRLQQELDDLLVDLDHQRQIVSNLEKKQKKFDQLLAEEKNISARYAEERDRAEAEAREKETKALSLARALEEALEAREEAERQNKQLRADMEDLMSSKDDVGKNVHELEKSKRALE
pH Range where Protein is >80% detected as Soluble and A650 <1 OD: Low (pH solubility): 5.1
pH Range where Protein is >80% detected as Soluble and A650 <1 OD: Other (pH solubility): 3
pH Range where Protein is >80% detected as Soluble and A650 <1 OD: High (pH solubility): 9.1
Tagg (pH 7.1) [2]: >95
SGF Half-life (t½) [1]: 1740 s

B4: SEQID-00241: nutritive polypeptide (protein, listed as Bos taurus)
chain: SELKKDIDDLELTLAKVEKEKHATENKVKNLTEEMAGLDETIAKLTKEKKALQEAHQQTLDDLQAEEDKVNTLTKAKTKLEQQVDDLEGSLEQEKKLRMDLERAKRKLEGDLKLA
pH Range where Protein is >80% detected as Soluble and A650 <1 OD: Low (pH solubility): 4.3
pH Range where Protein is >80% detected as Soluble and A650 <1 OD: High (pH solubility): 9.1
Tagg (pH 7.1) [2]: >95
SGF Half-life (t½) [1]: 18 s

B5: SEQID-00226: nutritive polypeptide (protein, listed as Bos taurus)
chain: QLQALQAQLTDTKKKVDDDLGTIENLEEAKKKLLKDVEVLSQRLEEKALAYDKLEKTKTRLQQELDDLLVDLDHQRQIVSNLEKKQKKFDQLLAEEKNIS
pH Range where Protein is >80% detected as Soluble and A650 <1 OD: Low (pH solubility): 2.6
pH Range where Protein is >80% detected as Soluble and A650 <1 OD: High (pH solubility): 9.1
Tagg (pH 7.1) [2]: >95
SGF Half-life (t½) [1]: 42 s

B6: SEQID-00510: nutritive polypeptide naturally produced in Turkey, recombinantly expressed in E. coli (protein)
chain: MVPIAEKMAEKQEEPSNTQNGEPDNAEEGEGKKKKKVKREDLPPFEIVTGERLPAIFFKFQFRNVEYSSGRNKTFLCYVVETQGKESTTSRGYLEDEHAASHAEIAFFNTILPKCESSLRYNITWYVSSSPCVTCADRISETLRKNKNLRLTIMVGRLFMWEEPEMQAALKKMKSAGCKLRIMKPQDFEYVWQNFVEQEEGEEAKAFVPWEDIQENFQYYEEKLAEILQ
modifications: Meleagris gallopavo
notes: nutritive polypeptide naturally produced in Turkey, recombinantly expressed in E. coli
% Intact Protein at 10 min [3]: 13.4%
% Remaining at 10 min [3]: 13.4%
pH Range where Protein is >80% detected as Soluble and A650 <1 OD: Low (pH solubility): 6.5
pH Range where Protein is >80% detected as Soluble and A650 <1 OD: Other (pH solubility): 2.8
pH Range where Protein is >80% detected as Soluble and A650 <1 OD: High (pH solubility): 7.1
Tagg (pH 7.1) [2]: 57.5
SGF Half-life (t½) [1]: 18 s
Half-life [1]: 18 s

B7: SEQID-00269: nutritive polypeptide (protein)
chain: DLKKKLDDDLGTLENLEELKKKLLKDLELLSQRLEELALAYDKLEKTKTRLQQELDDLLLDLDHQ
pH Range where Protein is >80% detected as Soluble and A650 <1 OD: Low (pH solubility): 7.2
pH Range where Protein is >80% detected as Soluble and A650 <1 OD: High (pH solubility): 9.1
Tagg (pH 7.1) [2]: >95
SGF Half-life (t½) [1]: 2460 s

B8: SEQID-00502: protein of the 168 nutritive polypeptide library (protein)
chain: MASQSNTKSVHDFTVKDARGNNVNLADYKGKVLLIVNVASQCGLTNSNYTELNQLYEKYKGKGLEILAFPCNQFGAQEPGTNEEIVEFACTRFKAEFPIFDKVDVNGDNAAPLYKFLKSSKGGLFGDSIKWNFSKFLVDKDGNVVDRYAPTTSPLSIEKDIKKLLDA
modifications: Glycine max
notes: protein of the 168 nutritive polypeptide library
% Intact Protein at 10 min [3]: 9.7%
% Remaining at 10 min [3]: 9.7%
pH Range where Protein is >80% detected as Soluble and A650 <1 OD: Low (pH solubility): 7.1
pH Range where Protein is >80% detected as Soluble and A650 <1 OD: Other (pH solubility): 2.8
Tagg ([2]; pH 2.8): 95
Tagg ([2]; pH 3.7): 95
Tagg ([2]; pH 4.3): 95^
Tagg ([2]; pH 4.6): 95^
Tagg ([2]; pH 5.0): 77
Tagg ([2]; pH 5.6): 77
Tagg ([2]; pH 6.0): 76.5
Tagg ([2]; pH 6.5): 78.5
Tagg ([2]; pH 7.1): 95
SGF Half-life (t½) [1]: 36 s
Half-life [1]: 36 s

B9: SEQID-00606: protein of the 168 nutritive polypeptide library (protein)
chain: MASEGDHHHHHHHHQDHDHHHHDHDHHHHHDGEGETNSWVGKDGKVYHSHDGLAPHSHEPIYSPGYFTRRAPPLLNRNFNERAFTVGIGGPVGTGKTALMLALCELLRENYSLAAVTNDIFTKEDGEFLVKHKALPEERIRAVETGGCPHAAIREDISINLGPLEELSNLFKADILLCESGGDNLAANFSRELADYIIYIIDVSGGDKIPRKGGPGITQADLLVINKTDLAPAIGADLAVMQRDALRMRDGGPFVFAQVKHKIGVEEIGNLVLQAWEAATGNKRH
modifications: Glycine max
notes: as for B8
% Intact Protein at 10 min [3]: 0%
% Remaining at 10 min [3]: 0%
Tagg (pH 7.1) [2]: 95
SGF Half-life (t½) [1]: 18 s
Half-life [1]: 18 s

B10: SEQID-00610: protein of the 168 nutritive polypeptide library (protein, listed as Saccharomyces cerevisiae)
chain: MVLEATVLVIDNSEYSRNGDFPRTRFEAQIDSVEFIFQAKRNSNPENTVGLISGAGANPRVLSTFTAEFGKILAGLHDTQIEGKLHMATALQIAQLTLKHRQNKVQHQRIVAFVCSPISDSRDELIRLAKTLKKNNVAVDIINFGEIEQNTELLDEFIAAVNNPQEETSHLLTVTPGPRLLYENIASSPIILEEGSSGMGAFGGSGGDSDANGTFMDFGVDPSMDPELAMALRLSMEEEQQRQERLRQQQQQQDQPEQSEQPEQHQDK
modifications: source: /note="strain ATCC 204508 / S288c"
notes: as for B8
% Intact Protein at 10 min [3]: 3.3%
% Remaining at 10 min [3]: 3.3%
Tagg (pH 7.1) [2]: 54.5
SGF Half-life (t½) [1]: 24 s
Half-life [1]: 24 s
